Here are results for three molecules from US20240207418A1 (PROFOUNDBIO US, published 2024).

Substitutions are numbered along the chain they refer to.

Usually Kd stands for the concentration at which binding is half-saturated. Lower therefore signals a tighter complex. The term koff denotes the rate constant with which the complex falls apart. Lower therefore signals a long-lived complex. By kon is commonly meant the second-order rate constant of association. A higher kon goes with faster complex formation.

In assay [1] the target is T1, rat FOLR1 extracellular domain linked to His tag (rat, UniProt G3V8M6 25-232).
T1 construct: BLI analyte; also called Rat-Ag
T1 sequence (G3V8M6 entry or part of it limits assumed): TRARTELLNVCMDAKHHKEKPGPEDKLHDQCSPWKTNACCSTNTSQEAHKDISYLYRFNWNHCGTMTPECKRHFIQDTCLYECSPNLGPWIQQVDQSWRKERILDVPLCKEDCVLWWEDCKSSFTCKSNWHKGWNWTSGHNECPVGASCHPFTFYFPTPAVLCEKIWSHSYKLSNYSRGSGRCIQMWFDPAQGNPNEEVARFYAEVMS
Kind of assay: BLI, Ag 7.82 nM; * below range of quantification. On the technique in general: Biolayer interferometry detects binding as a change in optical thickness at a sensor tip.

Assay [2] concerns the target T2, mouse FOLR1 extracellular domain linked to His tag (mouse, UniProt P35846 25-232, limits assumed).
T2 construct: extracellular domain; BLI analyte; also called Mouse-Ag; not shown: His tag
As to the kind of experiment: BLI, Ag 7.82 nM; * below range of quantification.

Assay [3] deals with T1, rat FOLR1 extracellular domain linked …. Kind of assay: BLI, global 1:1 fit; all responses below quantification range.
Assay [4] has the same target. Kind of assay: BLI, Ag 15.6 nM; * below range of quantification.
The target of assay [5] is T2, mouse FOLR1 extracellular domain linked …. As to the kind of experiment: BLI, Ag 15.6 nM; * below range of quantification.
The target of assay [6] is T1, rat FOLR1 extracellular domain linked …. Kind of assay: BLI, Ag 62.5 nM; * below range of quantification.
Assay [7] concerns the target T2, mouse FOLR1 extracellular domain linked …. As to the kind of experiment: BLI, Ag 62.5 nM; * below range of quantification.
Assay [8] addresses T1, rat FOLR1 extracellular domain linked …. Kind of assay: BLI, Ag 125 nM; * below range of quantification.
The target of assay [9] is T2, mouse FOLR1 extracellular domain linked …. Kind of assay: BLI, Ag 125 nM; * below range of quantification.
Assay [10] concerns the target T1, rat FOLR1 extracellular domain linked …. Kind of assay: BLI, Ag 31.3 nM; * below range of quantification.
For assay [11], the target named is T2, mouse FOLR1 extracellular domain linked …. Kind of assay: BLI, Ag 31.3 nM; * below range of quantification.
The target in assay [12] is T3, human FOLR3 extracellular domain linked to His tag (human, UniProt P41439 23-245, limits assumed).
T3 construct: extracellular domain; BLI analyte; also called Hu-FRg; not shown: His tag
T3 sequence (P41439 23-245 limits assumed): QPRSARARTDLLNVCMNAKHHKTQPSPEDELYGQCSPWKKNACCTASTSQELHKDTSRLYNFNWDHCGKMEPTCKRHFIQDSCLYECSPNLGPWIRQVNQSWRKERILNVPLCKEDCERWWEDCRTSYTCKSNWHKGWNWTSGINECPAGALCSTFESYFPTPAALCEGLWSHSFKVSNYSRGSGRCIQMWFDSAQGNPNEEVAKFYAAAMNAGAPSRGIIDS
Kind of assay: BLI, global 1:1 fit; all responses below quantification range.

The target of assay [13] is T4, human FOLR1 protein, His tag (ACRO-FO1-H52H1) (human, UniProt P15328 25-233).
T4 construct: Bought recombinant protein used for panning and for coating ELISA plates; not shown: His tag
T4 sequence (P15328 25-233 limits assumed): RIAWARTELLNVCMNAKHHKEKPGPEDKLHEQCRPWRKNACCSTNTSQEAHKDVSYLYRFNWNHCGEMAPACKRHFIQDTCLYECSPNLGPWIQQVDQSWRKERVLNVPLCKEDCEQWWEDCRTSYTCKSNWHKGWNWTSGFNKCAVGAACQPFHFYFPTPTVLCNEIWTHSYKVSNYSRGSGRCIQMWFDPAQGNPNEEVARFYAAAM
Kind of assay: ELISA, supernatant diluted 25x. In general terms: ELISA stands for enzyme-linked immunosorbent assay.

T2 sequence (P35846 25-232 limits assumed): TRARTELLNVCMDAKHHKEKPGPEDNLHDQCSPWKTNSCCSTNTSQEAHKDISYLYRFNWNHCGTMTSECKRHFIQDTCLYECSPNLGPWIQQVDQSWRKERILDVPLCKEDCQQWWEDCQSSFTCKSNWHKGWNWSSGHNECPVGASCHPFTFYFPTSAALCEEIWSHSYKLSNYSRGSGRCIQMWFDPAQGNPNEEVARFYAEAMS

B1: anti-huFOLR-1 conjugate F131-LD038 (antibody, V domains shown)
VH: EVQLLESGGGVVQPGRSLRLSCAASGFTFSSYGMHWVRQAPGKGLEWVAVISYDGSNKYYADSVKGRFTISRANSKNTLYLQMNSLRAEDTAVYYCARPRAYYGAYGSSFDYWGQGTQVTVSS
VL: EIVMTQSPSSVSASVGDRVAITCRASQGISSWLAWYQQKPGKAPKLLIYAASSLQSGVPSRFSGSGSGTDFTLTISSLQPEDFATYYCQQSYSTPLTFGGGTKVDIK
modifications: drug-linker LD038 coupled to cysteine thiols after TCEP reduction; positions not given; drug-linker LD038 (PB038; PEG unit, Val-Cit-PAB cleavable linker, exatecan) coupled by maleimide to cysteine thiols after TCEP reduction; DAR 7.6 by LC-MS; positions not given
notes: also called F131-038; PA038 conjugate of F131
Turning to B1, the Response in [1] is -0.00438; in [2], -0.00483; in assay [4], -0.00212; in assay [5], -0.00324; in [6] it was -0.00393; in assay [7], -0.000242. In addition, the Response in assay [8] is 0.0007; in [9], 0.0008; in assay [10], -0.00454; in assay [11], -0.00132. The dissociation constant (Kd) stood at 84.8 nM in assay [3] and 0.0328 nM in assay [12]. The same molecule had a koff in assay [3] of 0.224 s⁻¹. The same molecule returned an on-rate constant (kon) in assay [3] of 2.64e+06 M⁻¹ s⁻¹.

B2: anti-FOLR1 antibody F138 (antibody, V domains shown)
VH: B1 VH with R72T, A73H
VL: B1 VL
notes: Tested as full-length IgG with an IgG1 Fc, expressed in HEK293 (transfection supernatant); also called clone F138
Turning to B2, in assay [13], the OD450 turned out to be 0.827 OD450.

B3: anti-FOLR1 antibody F131 (antibody, V domains shown)
VH: B1 VH
VL: B1 VL
notes: Tested as full-length IgG with an IgG1 Fc (HEK293 supernatant and purified; later ExpiCHO-S); also called F131 mAb; F131 Ab
For the molecule B3, the Response is -0.00563 in assay [1]; 0.0027 in [2]; -0.00395 in [4]; -0.0051 in assay [5]; -0.00606 in assay [6]; -0.00178 in [7]. Further, the Response in assay [8] is -0.00477; in assay [9], -0.000579; in assay [10], -0.00532; in assay [11], -0.00251. The molecule also had a koff in [3] of 1.03 s⁻¹. For the same molecule, in assay [3], the kon is 5490 M⁻¹ s⁻¹.
